{
  "source": "paper PMC11863148",
  "molecular_target": "MERS-CoV nsp13 helicase (WT) (MERS-CoV, UniProt K9N7C7 5311-5908)",
  "sequence (K9N7C7 5311-5908)": "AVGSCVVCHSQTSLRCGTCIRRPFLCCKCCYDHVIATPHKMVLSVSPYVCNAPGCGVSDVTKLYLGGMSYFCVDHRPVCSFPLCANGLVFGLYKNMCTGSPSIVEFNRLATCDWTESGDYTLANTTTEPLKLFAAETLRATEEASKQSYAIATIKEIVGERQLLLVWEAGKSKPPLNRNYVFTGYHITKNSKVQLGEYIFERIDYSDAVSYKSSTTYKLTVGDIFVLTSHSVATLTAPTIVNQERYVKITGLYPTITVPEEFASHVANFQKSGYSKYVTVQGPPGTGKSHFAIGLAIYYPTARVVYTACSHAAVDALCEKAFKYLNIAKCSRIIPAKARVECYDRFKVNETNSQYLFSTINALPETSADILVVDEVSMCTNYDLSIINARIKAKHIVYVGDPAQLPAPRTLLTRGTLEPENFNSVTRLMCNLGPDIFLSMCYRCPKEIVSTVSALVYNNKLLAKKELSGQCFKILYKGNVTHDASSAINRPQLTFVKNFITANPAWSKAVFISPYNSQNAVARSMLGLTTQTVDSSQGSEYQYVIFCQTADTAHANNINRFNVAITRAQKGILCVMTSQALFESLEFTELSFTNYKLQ",
  "test": "EMSA",
  "data": [
    {"binder": "EMSA partial duplex, 18 bp with 5' (dT)21 overhang (dsDNA) DNA 1: TTTTTTTTTTTTTTTTTTTTTCTGATGTTAGCAGCTTCG DNA 2: CGAAGCTGCTAACATCAG", "values": [
      {"measurement": "binding result", "value": "binds"}
    ]}
  ]
}
